Source: paper doi:10.1101/760389 (bioRxiv, 2019)

T1: MBP-tagged CKL6 (casein kinase1-like 6) (Arabidopsis thaliana, UniProt Q8LPJ1 1-479)
T1 sequence (looked up): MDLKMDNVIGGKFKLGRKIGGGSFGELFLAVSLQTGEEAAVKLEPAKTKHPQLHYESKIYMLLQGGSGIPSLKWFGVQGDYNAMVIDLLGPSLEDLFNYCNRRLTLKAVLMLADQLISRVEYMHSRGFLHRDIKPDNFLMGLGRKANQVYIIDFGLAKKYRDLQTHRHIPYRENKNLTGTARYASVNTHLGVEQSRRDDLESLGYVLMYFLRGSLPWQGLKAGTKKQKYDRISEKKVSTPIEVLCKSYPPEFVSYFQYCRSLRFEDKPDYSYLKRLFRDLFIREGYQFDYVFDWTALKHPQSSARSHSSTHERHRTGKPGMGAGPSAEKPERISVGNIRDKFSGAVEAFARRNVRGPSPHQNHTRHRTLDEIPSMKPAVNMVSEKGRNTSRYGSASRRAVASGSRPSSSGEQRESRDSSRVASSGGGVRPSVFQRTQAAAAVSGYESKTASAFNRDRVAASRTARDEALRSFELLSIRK

B1: FRA1 C-terminal tail fragment (amino acids 616-1035), C-terminal 6xHis fusion (domain or fragment, Arabidopsis thaliana, UniProt Q8GS71 616-1035, looked up)
chain: ARRLQDEIQSIKAQKVQLQHRMKQEAEQFRQWKASREKELLQLRKEGRKSEYERHKLQALNQRQKMVLQRKTEEAAMATKRLKELLEARKSSPREHSAGTNGFGTNGQTNEKSLQRWLDHELEVMVNVHEVRHEYEKQSHVRAALAEELAVLRQVDEFAVKGLSPPRGKNGFARASSLSPNARMARISSLENMLVISSNSLVAMASQLSEAEERERAFTNRGRWNQLRSMGEAKNLLQYMFNSLAETRCQLWEKDVEIKEMKDQFKEIVGLLRQSELRRKEAEKELKLREQAIATSLGTPPSSVKHVAEDLSTPSPMTVPAQKQLKFTPGIANGKVRGPAAFLDTNKKMVPMGQVSMRKLSAVGKQGGRLWRWKRSHHQWIVQFKWKWQKPWRLSEWIRTSDETLLKSKPRLKALPNKIM
B2: MBP-tagged CKL3 (casein kinase1-like 3) (enzyme, Arabidopsis thaliana, UniProt Q93Z18 1-415, looked up)
chain: MERIIGGKYKLGRKIGGGSFGEIFLATHVDTFEIVAVKIENSKTKHPQLLYEAKLYRILEGGSGIPRIKWFGVDGTENALVMDLLGPSLEDLFVYCGRKFSPKTVLMLADQMLTRIEFVHSKGYLHRDIKPDNFLMGLGRKANQVYLIDFGLAKRYRDANTNRHIPYRENKNLTGTARYASCNTHLGIEQSRRDDLESLGYVLLYFLRGSLPWQGLKAVDKKQKYDKICEKKISTPIEVLCKNHPVEFASYFHYCHTLTFDQRPDYGFLKRLFRDLFSREGYEFDYIFDWTIIKYQQAQKSRNQSQAVPGSSNPRAMPVDTSNHRGGPNISYEAEASERVRSANAIGPSPQINNNTAAGRTPGFDHPVHKNMNMPSTSLSPAGTSKRNVGPETSNSGYGSGNRTGWTSSFMSPEK

How the values were obtained:
[1] = target: T1, MBP-tagged CKL6 (casein kinase1-like 6); assay: pull-down
[2] = target: B1; assay: pull-down

B1: binds [1].

B2: binds [2].
